Results on one molecule are retold here after US10012655B2, “Method for quantitating total HMGB1 protein in biological samples” (INSTITUT PASTEUR, priority 2008, dated 2018).

One test deals with R5-HIV-1Ba-L. The experiment in a line: HIV-1 replication in infected iDCs, p24 ELISA in culture supernatant. The test is classed as cell-based. As to conditions: 1 μg/ml, 3 days. How it is done: FIGS. 6 (a), (b) and (c). Exogenous rh-HMGB1 triggers HIV-1 and HIV-2 replication in iDC. (a) HIV-1-infected iDC were cultured alone or in the presence of aNK cells for 3 days. Rh-HMGB1 (1 μg/ml) was added in some cultures. HIV replication was measured by p24 quantification in culture supernatant (b) HIV1-infected iDC were cultured alone or in the presence of aNK cells for 3 days. Blocking anti-HMGB1 antibodies (10 μg/ml) or glycyrrhizin (10 μg/ml) were added at culture initiation. HIV replication was measured by p24 quantification in culture supernatant. The mean±sd of three independent experiments is shown. Statistical comparisons were made with the non parametric Mann-Whitney test. * p<0.05; (c) HIV-2-infected iDC were cultured alone or in the presence of aNK cells for 3 days. Rh-HMGB1 (1 μg/ml) was added in some cultures. HIV replication was measured by p24 quantification in culture supernatant.
Virus stock preparation was prepared by amplification of R5-HIV-1Ba-L on MDM from healthy donors. Viral stock was then clarified by centrifugation prior to determination of HIV1 p24 concentration. iDCs were plated in 96-well culture plates at 200,000 cells/well and incubated for 3 hours at 37° C. in a 5% CO2 atmosphere with R5-HIV-1BAL at various concentrations (0.001 to 10 ng p24/ml). Cells were harvested, washed four times with media containing 10% FCS and, when indicated, rNK or aNK cells were added at a NK:DC ratio of 1:5, unless otherwise indicated. NK-DC cocultures lasted 24 h before analysis of the maturation stage of DCs and/or quantification of viral production. In some experiments (FIG. 6), HIV-1 infected iDCs were incubated alone or with aNK cells for 3 days, in the presence of rh-HMGB1 (1 μg/ml) (R&DSystems), and in some cultures in the presence of rabbit antiHMGB1 Abs (10 μg/ml) (Abcam, Cambridge, UK) or Glycyrrhizin (10 μg/ml).
The concentration of HIV-1 in the supernatant of infected cell cultures was determined by measuring the amount of p24 protein by ELISA (Ingen, Belgium). DNA from cells was extracted using the GIAamp DNA Blood Mini Kit (Qiagen, Basel, Switzerland) and quantified HIV-1 proviral load by RT-PCR as described previously54. The frequency of HIV-1-infected cells was determined by flow cytometry to detect intracellular p24 molecule. Cells were surface stained with antibodies specific for CD40 (BD Biosciences, San Jose, Calif.) to target DC and intracellular stained with p24-specific antibodies (Coulter). Stained cells were fixed in 1% PFA, immediately acquired on a FACScalibur (Becton Dickinson) and analyzed with FlowJo software. In some experiments infected DCs were imaged, after immunofluorescence, by laser scanning confocal microscopy.

The subject of another test is HIV-2. The experiment in a line: HIV-2 replication in infected iDCs, p24 ELISA in culture supernatant. The test is classed as cell-based. As to conditions: HIV-2-infected iDC, day 3 of infection. How it is done:
FIGS. 6 (a), (b) and (c). Exogenous rh-HMGB1 triggers HIV-1 and HIV-2 replication in iDC. (a) HIV-1-infected iDC were cultured alone or in the presence of aNK cells for 3 days. Rh-HMGB1 (1 μg/ml) was added in some cultures. HIV replication was measured by p24 quantification in culture supernatant (b) HIV1-infected iDC were cultured alone or in the presence of aNK cells for 3 days. Blocking anti-HMGB1 antibodies (10 μg/ml) or glycyrrhizin (10 μg/ml) were added at culture initiation. HIV replication was measured by p24 quantification in culture supernatant. The mean±sd of three independent experiments is shown. Statistical comparisons were made with the non parametric Mann-Whitney test. * p<0.05; (c) HIV-2-infected iDC were cultured alone or in the presence of aNK cells for 3 days. Rh-HMGB1 (1 μg/ml) was added in some cultures. HIV replication was measured by p24 quantification in culture supernatant. […]
2—NK-DC cocultures: cells were harvested, washed three times with RPMI containing 10% FCS and, when indicated, aNK cells were added at a NK:DC ratio of 1:5. […] NK-DC cocultures lasted 3 to 7 days before quantification of viral production in culture supernatants.
3—Quantification of HIV-2 viral production: the concentration of HIV-2 particles in the supernatants was determined with the p24 ELISA kit (Ingen, Belgium).
A general note: In an ELISA, binding on a coated surface is turned into a signal by an enzyme label.

B1: rh-HMGB1: recombinant human HMGB1 protein (R&D Systems) (protein, UniProt P09429 1-215, looked up)
High mobility group protein B1: MGKGDPKKPRGKMSSYAFFVQTCREEHKKKHPDASVNFSEFSKKCSERWKTMSAKEKGKFEDMAKADKARYEREMKTYIPPKGETKKKFKDPNAPKRPPSAFFLFCSEYRPKIKGEHPGLSIGDVAKKLGEMWNNTAADDKQPYEKKAAKLKEKYEKDIAAYRAKGKPDAAKKGVVKAEKSKKKKEEEEDEEDEEDEEEEEDEEDEDEEEDDDDE
As for B1, the “p24 production in culture supernatants” value in the test with R5-HIV-1Ba-L (HIV-1-infected iDC cocultured with aNK cells) is recorded as “significant stimulatory effect on p24 production”. Also, the “production of p24 in culture supernatants” value in the test on R5-HIV-1Ba-L (HIV-1-infected iDC cultured alone) is listed as “enhancing dramatically the production of p24”. In the test on HIV-2, the “HIV-2 viral replication (p24 in supernatant)” value is recorded as “slight increase in viral replication”.
